Measured values taken from patent EP2330122A1, “OFA/iLRP derived modified peptide” (Asklepios Kliniken Hamburg Gmbh, priority 2009, dated 2011).
Values belong to the molecule of their own block, whether it stands above or below them. Where no end group is shown, it is not given here.

Experiments:
[1] = tested on: tumor cells from CLL patients; assay: 51Chromium release assay on tumor cells from CLL patients; type: cell-based, human; conditions: CTL induction with the peptide
Protocol: For the induction of OFA/iLR peptide-specific CTL obtained from patients with CLL CDS^+ T cells were separated from PBMC using immunomagnetic beads (MACS®, Miltenyi, Bergisch-Gladbach, Germany) and co-cultured with autologous irradiated OFA/iLR peptide-pulsed CD8^+/CD4^+-depleted PBMC. CTL were weekly restimulated with autologous irradiated peptide-pulsed CD8^+ICD4^+-depleted PBMC in the presence of IL-2 (20IU/ml; CellConcepts, Weisskirch, Germany) and IL-7 (10ng/ml; PeproTech, Hamburg, Germany). After at least four weekly restimulations, CTL reactivity was determined in a conventional 4h ^51Chromium release assay. Antibody blocking experiments were performed as previously described (Zeis M, Siegel S, Schmitz M et al. Induction of cytotoxic T lymphocytes against hematologic neoplasms by survivin RNA-transfected dendritic cells. J Immunol. 2003; 170, 5391-5397).
T cells specific for HLA-A* 02-restricted iLR-ASK-a2 peptide were tested in a standard ^51Chromium release assay on tumor cells from CLL patients.

[2] = molecular target: T1, HLA-A*0201 molecule on the TAP-deficient T2 cell line (human); assay: T2 binding assay
T1 construct: whole, on cells; MHC class I on T2 cells, loaded with peptide from outside; also called HLA-A2-molecule; HLA-A*02-molecule

[3] = molecular target: T1, HLA-A*0201 molecule on the …; assay: T2 binding assay, compared with the native peptide SEQ ID No. 2

Molecule: VAIENPADV [natural processed iLR66-74 peptide]
cytotoxicity obtained by stimulation of patients PBMC with the peptide [1]: no cytotoxicity

binding result [2]: binds
B1: native iLR66-74, naturally processed OFA/iLR peptide (VAIENPADV) (peptide)
peptide: VAIENPADV
notes: Synthetic 9-mer; also called naturally processed iLR peptide; naturally processed peptide

binding result [3]: binds
B2: iLR-ASK-A2 66-74 modified OFA/iLR peptide (VLIENPADV) (peptide)
peptide: VLIENPADV
notes: It is OFA/iLRP AA66-AA74 with the second residue changed from Ala to Leu; also called modified peptide
